{"source": "patent US20040259802", "biological_target": "T1, 19-mer (SEQ ID NO:11) cleavage domain peptide", "T1 chain": "PRCGNPDVANYNFFPRKPK", "data": [{"protein": "Proenzyme pro-MMP-9 (protein) APRQRQSTLVLFPGDLRTNLTDRQLAEEYLYRYGYTRVAEMRGESKSLGPALLLLQKQLSLPETGELDSATLKAMRTPRCGVPDLGRFQTFEGDLKWHHHNITYWIQNYSEDLPRAVIDDAFARAFALWSAVTPLTFTRVYSRDADIVIQFGVAEHGDGYPFDGKDGLLAHAFPPGPGIQGDAHFDDDELWSLGKGVVVPTRFGNADGAACHFPFIFEGRSYSACTTDGRSDGLPWCSTTANYDTDDRFGFCPSERLYTQDGNADGKPCQFPFIFQGQSYSACTTDGRSDGYRWCATTANYDRDKLFGFCPTRADSTVMGGNSAGELCVFPFTFLGKEYSTCTSEGRGDGRLWCATTSNFDSDKKWGFCPDQGYSLFLVAAHEFGHALGLDHSSVPEALMYPMYRFTEGPPLHKDDVNGIRHLYGPRPEPEPRPPTTTTPQPTAPPTVCPTGPPTVHPSERPTAGPTGPPSAGPTGPPTAGPSTATTVPLSPVDDACNVNIFDAIAEIGNQLYLFKDGKYWRFSEGRGSRPQGPFLIADKWPALPRKLDSVFEERLSKKLFFFSGRQVWVYTGASVLGPRRLDKLGLGADVAQVTGALRSGRGKMLLFSGRRLWRFDVKAQMVDPRSASEVDRMFPGVPLDTHDVFQYREKAYFCQDRFYWRVSSRSELNQVDQVGYVTYDILQCPED", "values": [{"measurement": "conversion of pro-MMP-9 into prodomain and active enzyme by stromilysin (HPLC splicing assay)", "result": "Titrating the standard splicing reaction with the 19-mer (SEQ ID NO:11) peptide prevents the conversion of pro-MMP-9 into the prodomain and the active enzyme. Splicing can be inhibited in a dose dependent manner with micromolar 19-mer"}]}]}
